Source: patent publication US20160264649A1

How the values were obtained:
Assay in all cases: cell-based or functional assay
[1] = target: HIV-1 MGRM-G-016 Env (HIV-1)
[2] = target: HIV-1 IAVI-C3 Env (HIV-1)
[3] = target: HIV-1 MGRM-C-020 Env on pseudovirus (HIV-1)
[4] = target: HIV-1 MGRM-C-014 Env on pseudovirus (HIV-1)
[5] = target: HIV-1 MGRM-AG-008 Env (HIV-1)
[6] = target: HIV-1 MGRM-D-003 Env (HIV-1)
[7] = target: HIV-1 MGRM-AG-003 Env (HIV-1)
[8] = target: HIV-1 MGRM-G-014 Env (HIV-1)
[9] = target: HIV-1 MGRM-C-001 Env on pseudovirus (HIV-1)
[10] = target: HIV-1 IAVI-C22 Env (HIV-1)
[11] = target: HIV-1 JRFL Env on pseudovirus (HIV-1)
[12] = target: HIV-1 MGRM-D-020 Env (HIV-1)
[13] = target: HIV-1 APV_13 Env on pseudovirus (HIV-1)
[14] = target: HIV-1 MGRM-G-001 Env (HIV-1)
[15] = target: HIV-1 MGRM-C-024 Env on pseudovirus (HIV-1)
[16] = target: HIV-1 92BR020 Env on pseudovirus (HIV-1)
[17] = target: HIV-1 NL43 Env on pseudovirus (HIV-1)
[18] = target: HIV-1 MGRM-D-002 Env (HIV-1)
[19] = target: HIV-1 MGRM-AG-009 Env (HIV-1)
[20] = target: HIV-1 MGRM-C-012 Env on pseudovirus (HIV-1)
HIV-1 APV-13 Env (HIV-1) = target: HIV-1 APV-13 Env (HIV-1)
[21] = target: HIV-1 MGRM-C-023 Env on pseudovirus (HIV-1)
[22] = target: HIV-1 98CN009 Env on pseudovirus (HIV-1)
[23] = target: HIV-1 92TH021 Env (HIV-1)
[24] = target: HIV-1 6535.3 (Acute) Env on pseudovirus (HIV-1)
[25] = target: HIV-1 MGRM-AG-011 Env (HIV-1)
[26] = target: HIV-1 MGRM-F1-015 Env (HIV-1)
[27] = target: HIV-1 MGRM-F1-010 Env (HIV-1)
[28] = target: HIV-1 MGRM-Chronic-B-011 Env on pseudovirus (HIV-1)
HIV-1 APV-17 Env (HIV-1) = target: HIV-1 APV-17 Env (HIV-1)
[29] = target: HIV-1 MGRM-D-021 Env (HIV-1)
[30] = target: HIV-1 MGRM-AG-005 Env (HIV-1)
[31] = target: HIV-1 MGRM-AE-006 Env (HIV-1)
[32] = target: HIV-1 MGRM-F1-021 Env (HIV-1)
[33] = target: HIV-1 MGRM-F1-020 Env (HIV-1)
[34] = target: HIV-1 92RW020 Env (HIV-1)
[35] = target: HIV-1 93UG077 Env (HIV-1)
[36] = target: HIV-1 MGRM-D-024 Env (HIV-1)
[37] = target: HIV-1 MGRM-G-019 Env (HIV-1)
[38] = target: HIV-1 MGRM-C-004 Env on pseudovirus (HIV-1)
HIV-1 NL43 Env (HIV-1) = target: HIV-1 NL43 Env (HIV-1)
[39] = target: HIV-1 MGRM-G-015 Env (HIV-1)
[40] = target: HIV-1 MGRM-G-024 Env (HIV-1)
[41] = target: HIV-1 MGRM-G-025 Env (HIV-1)
[42] = target: HIV-1 MGRM-AG-012 Env (HIV-1)
[43] = target: HIV-1 MGRM-Chronic-B-020 Env on pseudovirus (HIV-1)
[44] = target: HIV-1 MGRM-C-025 Env on pseudovirus (HIV-1)
[45] = target: HIV-1 93IN905 Env (HIV-1)
aMLV envelope = target: aMLV envelope
[46] = target: HIV-1 MGRM-D-014 Env (HIV-1)
[47] = target: HIV-1 94UG103 Env (HIV-1)
[48] = target: HIV-1 MGRM-G-028 Env (HIV-1)

## 1495_C14 (PGC14) (antibody)
[1]
  IC50 (µg/ml), pseudovirus neutralization: > 50 µg/mL
[2]
  neutralization IC50: > 50 µg/mL
[3]
  IC50: > 50 µg/mL
[4]
  IC50: > 50 µg/mL
[5]
  IC50 (µg/ml), pseudovirus neutralization: 45 µg/mL
[6]
  IC50 (µg/ml), pseudovirus neutralization: > 50 µg/mL
[7]
  IC50 (µg/ml), pseudovirus neutralization: > 50 µg/mL
[8]
  IC50 (µg/ml), pseudovirus neutralization: > 50 µg/mL
[9]
  IC50: > 50 µg/mL
[10]
  neutralization IC50: 9.5 µg/mL
[11]
  IC50: > 50 µg/mL
[12]
  IC50 (µg/ml), pseudovirus neutralization: > 50 µg/mL
[13]
  IC50: > 50 µg/mL
[14]
  IC50 (µg/ml), pseudovirus neutralization: > 50 µg/mL
[15]
  IC50: > 50 µg/mL
[16]
  IC50: 4 µg/mL
[17]
  IC50: 40 µg/mL
[18]
  IC50 (µg/ml), pseudovirus neutralization: 29 µg/mL
[19]
  IC50 (µg/ml), pseudovirus neutralization: > 50 µg/mL
[20]
  IC50: > 50 µg/mL
HIV-1 APV-13 Env (HIV-1)
  neutralization IC50: > 50 µg/mL
[21]
  IC50: > 50 µg/mL
[22]
  IC50: 43 µg/mL
[23]
  IC50 (µg/ml), pseudovirus neutralization: > 50 µg/mL
  neutralization IC50: > 50 µg/mL
[24]
  IC50: 35 µg/mL
[25]
  IC50 (µg/ml), pseudovirus neutralization: > 50 µg/mL
[26]
  IC50 (pseudovirus neutralization): > 50 µg/mL
[27]
  IC50 (pseudovirus neutralization): > 50 µg/mL
[28]
  IC50: > 50 µg/mL
HIV-1 APV-17 Env (HIV-1)
  neutralization IC50: > 50 µg/mL
[29]
  IC50 (µg/ml), pseudovirus neutralization: > 50 µg/mL
[30]
  IC50 (µg/ml), pseudovirus neutralization: > 50 µg/mL
[31]
  IC50 (µg/ml), pseudovirus neutralization: > 50 µg/mL
[32]
  IC50 (pseudovirus neutralization): 46 µg/mL
[33]
  IC50 (pseudovirus neutralization): > 50 µg/mL
[34]
  neutralization IC50: 28.6 µg/mL
[35]
  neutralization IC50: > 50 µg/mL
[36]
  IC50 (µg/ml), pseudovirus neutralization: > 50 µg/mL
[37]
  IC50 (µg/ml), pseudovirus neutralization: > 50 µg/mL
[38]
  IC50: > 50 µg/mL
HIV-1 NL43 Env (HIV-1)
  neutralization IC50: 0.373 µg/mL
[39]
  IC50 (µg/ml), pseudovirus neutralization: > 50 µg/mL
[40]
  IC50 (µg/ml), pseudovirus neutralization: > 50 µg/mL
[41]
  IC50 (µg/ml), pseudovirus neutralization: > 50 µg/mL
[42]
  IC50 (µg/ml), pseudovirus neutralization: > 50 µg/mL
[43]
  IC50: > 50 µg/mL
[44]
  IC50: > 50 µg/mL
[45]
  neutralization IC50: > 50 µg/mL
aMLV envelope
  neutralization IC50: > 50 µg/mL
[46]
  IC50 (µg/ml), pseudovirus neutralization: 48 µg/mL
[47]
  neutralization IC50: > 50 µg/mL
[48]
  IC50 (µg/ml), pseudovirus neutralization: > 50 µg/mL

## b12 (antibody)
[1]
  IC50 (µg/ml), pseudovirus neutralization: > 50 µg/mL
[2]
  neutralization IC50: 5 µg/mL
[3]
  IC50: > 50 µg/mL
[4]
  IC50: > 50 µg/mL
[5]
  IC50 (µg/ml), pseudovirus neutralization: > 50 µg/mL
[6]
  IC50 (µg/ml), pseudovirus neutralization: > 50 µg/mL
[7]
  IC50 (µg/ml), pseudovirus neutralization: > 50 µg/mL
[8]
  IC50 (µg/ml), pseudovirus neutralization: > 50 µg/mL
[9]
  IC50: > 50 µg/mL
[10]
  neutralization IC50: 3.6 µg/mL
  neutralization IC90: 29.6 µg/mL
[11]
  IC50: 0.02 µg/mL
[12]
  IC50 (µg/ml), pseudovirus neutralization: > 50 µg/mL
[13]
  IC50: > 50 µg/mL
[14]
  IC50 (µg/ml), pseudovirus neutralization: > 50 µg/mL
[15]
  IC50: > 50 µg/mL
[16]
  IC50: > 50 µg/mL
[17]
  IC50: 0.17 µg/mL
[18]
  IC50 (µg/ml), pseudovirus neutralization: > 50 µg/mL
[19]
  IC50 (µg/ml), pseudovirus neutralization: > 50 µg/mL
[20]
  IC50: > 50 µg/mL
HIV-1 APV-13 Env (HIV-1)
  neutralization IC50: > 25 µg/mL
  neutralization IC90: > 50 µg/mL
[21]
  IC50: 13.9 µg/mL
[22]
  IC50: 1.52 µg/mL
[23]
  neutralization IC50: 9.99 µg/mL
  neutralization IC90: > 50 µg/mL
[24]
  IC50: 1.93 µg/mL
[25]
  IC50 (µg/ml), pseudovirus neutralization: > 50 µg/mL
[26]
  IC50 (pseudovirus neutralization): > 50 µg/mL
[27]
  IC50 (pseudovirus neutralization): > 50 µg/mL
[28]
  IC50: 2.11 µg/mL
HIV-1 APV-17 Env (HIV-1)
  neutralization IC50: > 25 µg/mL
  neutralization IC90: > 50 µg/mL
[29]
  IC50 (µg/ml), pseudovirus neutralization: 5.23 µg/mL
[30]
  IC50 (µg/ml), pseudovirus neutralization: > 50 µg/mL
[31]
  IC50 (µg/ml), pseudovirus neutralization: > 50 µg/mL
[32]
  IC50 (pseudovirus neutralization): > 50 µg/mL
[33]
  IC50 (pseudovirus neutralization): > 50 µg/mL
[34]
  neutralization IC50: > 50 µg/mL
  neutralization IC90: > 50 µg/mL
[35]
  neutralization IC50: 41.1 µg/mL
  neutralization IC90: > 50 µg/mL
[36]
  IC50 (µg/ml), pseudovirus neutralization: 5.92 µg/mL
[37]
  IC50 (µg/ml), pseudovirus neutralization: 3.77 µg/mL
[38]
  IC50: 5.46 µg/mL
HIV-1 NL43 Env (HIV-1)
  neutralization IC50: 0.06 µg/mL
  neutralization IC90: 0.28 µg/mL
[39]
  IC50 (µg/ml), pseudovirus neutralization: > 50 µg/mL
[40]
  IC50 (µg/ml), pseudovirus neutralization: 2.38 µg/mL
[41]
  IC50 (µg/ml), pseudovirus neutralization: > 50 µg/mL
[42]
  IC50 (µg/ml), pseudovirus neutralization: 10.4 µg/mL
[43]
  IC50: 6.16 µg/mL
[44]
  IC50: > 50 µg/mL
[45]
  neutralization IC50: 34.1 µg/mL
  neutralization IC90: > 50 µg/mL
aMLV envelope
  neutralization IC50: > 50 µg/mL
  neutralization IC90: > 50 µg/mL
[46]
  IC50 (µg/ml), pseudovirus neutralization: > 50 µg/mL
[47]
  neutralization IC50: 3.54 µg/mL
  neutralization IC90: 47.3 µg/mL
[48]
  IC50 (µg/ml), pseudovirus neutralization: > 50 µg/mL
